This is an account of results in patent US20240368301A1.

The target of experiment [1] is SIRPα V2-his (made by transient transfection of HEK293F cells according to SEQ ID NO:38) (Homo sapiens (Human)) (UniProt P78324). The experiment in a line: competition ELISA; coated SIRPα-V2-his, biotin-CD47 as competitor. A general note: ELISA stands for enzyme-linked immunosorbent assay.
Experiment [2] shares this target. The experiment in a line: BLI (Octet RED 96), His-tagged antigen on Ni-NTA sensor, antibody in solution. A general note: BLI is a label-free optical method that tracks binding on a fibre tip over time.

SIRPα V2-his (made by transient transfection of HEK293F cells according to SEQ ID NO:38) (Homo sapiens (Human)), sequence (P78324 other isoform, or with tags, fused parts or gaps limits assumed): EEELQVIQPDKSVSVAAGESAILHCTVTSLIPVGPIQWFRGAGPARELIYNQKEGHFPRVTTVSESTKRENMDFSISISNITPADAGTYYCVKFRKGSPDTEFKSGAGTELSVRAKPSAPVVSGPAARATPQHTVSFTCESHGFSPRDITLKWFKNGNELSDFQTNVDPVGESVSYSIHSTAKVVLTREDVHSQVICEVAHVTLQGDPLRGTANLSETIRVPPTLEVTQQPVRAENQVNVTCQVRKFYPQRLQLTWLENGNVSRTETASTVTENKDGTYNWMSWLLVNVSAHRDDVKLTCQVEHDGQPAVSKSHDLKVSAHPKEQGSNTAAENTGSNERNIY

B1: AD4-12 (antibody, V domains shown)
VH: EVQLEESGPGLVAPSQSLSITCTVSGFSLTGYGVNWVRQPPGKGLEWLGIIWGDGSTDYNSALKSRLSISKDNSKSQVFLKMNSLQSDDTARYYCARAGKMDYWGQGTSVTVSS
VL: DIVLTQSPASLAVSLGQGATISCRASESVDSYGNSFMHWYQQKPGQPPKPLIYLASNLESGVPARFSGSGSRTDFTLTIDPVEADDAATYYCQQNNEYPWTFGGGTKLEIK
As usually defined, the IC50 is the concentration at which inhibition is half-maximal. A high value points to weaker potency in that assay. The term Kd denotes a measure of binding affinity in units of concentration. Read a high Kd as lower affinity. Usually koff stands for a measure of how fast the partners let go of each other. The low end stands for slow dissociation, the high end for fast dissociation. By kon is commonly meant the rate constant with which the complex forms. Consider B1, for which the IC50 in experiment [1] was 9.32 nM. Also, in experiment [2], the Kd turned out to be 0.898 nM, the koff came to 0.000327 s⁻¹ and the kon came out at 364000 M⁻¹ s⁻¹.
